Like-named read-outs stand apart in the source and are kept apart here.
Legend:
[1] = molecular target: T1, SARS-CoV-2 N-terminal domain (NTD) protein (SARS-CoV-2, UniProt P0DTC2 14-305); assay: ELISA, immobilised NTD
SARS-CoV-2 spike protein [2] = molecular target: T2, SARS-CoV-2 spike protein (SARS-CoV-2, UniProt P0DTC2 14-1273)
[3] = molecular target: T3, SARS-CoV Receptor binding domain (RBD) protein (SARS-CoV, UniProt P59594 306-527); assay: ELISA, immobilised domain protein, 200 ng/ml antibody
[4] = molecular target: T3, SARS-CoV Receptor binding domain (RBD) …; assay: ELISA, immobilised SARS-CoV RBD
SARS-CoV-2 spike protein [5] = molecular target: T2, SARS-CoV-2 spike protein; assay: competition ELISA: antibody + biotin-ACE2 on immobilised spike
[6] = molecular target: T1, SARS-CoV-2 N-terminal domain (NTD) …; assay: ELISA, immobilised domain protein, 200 ng/ml antibody
[7] = molecular target: SARS-CoV-2 spike protein, Wuhan type (WT), on pseudotype virus SARS-CoV-2 St19pv (SARS-CoV-2, UniProt P0DTC2 14-1273); assay: cell-based or functional assay

B1: 1028-05K (antibody, V domains shown)
VH: QVTLKESGPVLVKPTETLTLTCTVSGFSLSNARMGVSWIRQPPGKALEWLAHIFSNDEKSYSTSLKRRLTISKDTPKSQVVLTMTNMDPVDTATYYCARTLGFWSGEYYYYYMDVWGKGTTVTVSS
VL: EIVMTQSPATLSVSPGERATLSCRASQSVSSSYLAWYQQKPGQAPRLLIYGASTRATGIPARFSGSGSGTEFTLTISSLQSEDFAVYYCQHYNNWPPLFTFGPGTKVDIKR
With B1 the binding result [1] was “no binding (tested: 200 ng/ml)”, the IC50 (SARS-CoV-2 spike protein [2]) was no less than 10 µg/mL and the binding result [3] was “binds”.

B2: 1028-121K (antibody, V domains shown)
VH: QVTLKESGPVLVKPTETLTLTCTVSGFSLSDARMGVSWIRQPPGKALEWLAHIFSNDEKSYNTSLKSRLTISKDTSKSQVVLTMTNMDPVDTATYYCARALGFWSGYYYYYYMDVWGKGTTVTVSS
VL: not shown
B2 was tested, and the binding result [1] was “no binding (tested: 200 ng/ml)”, the IC50 (SARS-CoV-2 spike protein [2]) was roughly 7.5 µg/mL and the binding result [3] was “binds”.

B3: 1028-55K (antibody, V domains shown)
VH: EVQLVESGGGLVQPGGSLRLSCAASGFIVSSNYMSWVRQAPGKGLEWVSLIYSGGSTYYVDSVKGRFTISRDNTKNTLYLQMNSLRAEDTAVYYCARDLDVRGALDIWGQGTMVIVSS
VL: not shown
For B3, the binding result [1] was “no binding (tested: 200 ng/ml)”, the IC50 (SARS-CoV-2 spike protein [2]) was roughly 0.3 µg/mL and the binding result [4] was “no binding (tested: 200 ng/ml)”.

B4: 0210-38L (antibody, V domains shown)
VH: EVQLVESGGGLVQPGGSLRLSCAASGFTFNSYWMSWVRQAPGKGLEWVADIKQDGSEKYYVDSVKGRFTISRDNAKNSLYLQMNSLRAEDTAVYYCARQLYYYGPIDYWGQGTLVTVSS
VL: NFMLTQPHSVSESPGKTVTISCTRSSGSIASNYVQWYQQRPGSSPTTVIYEDNQRPSGVPDRFSGSIDSSSNSASLTISGLKTEDEADYYCQSYDSNNRVFGGGTKLTVLG
For B4, the IC50 (SARS-CoV-2 spike protein [5]) was roughly 1.5 µg/mL.

B5: 1028-68L (antibody, V domains shown)
VH: QVQLVESGGGVVQPGRSLRLSCAASGFTFSSYAMHWVRQAPGKGLEWVAVISYDGSNKYYADSVKGRFTISRDNSKNTLYLQMNSLRAEDTAVYYCARADGSGWNYWGQGTLVTVSS
VL: SYELTQPPSVSVSPGQTARITCSGDPLPKQYAYWYQQKPGQAPVLVIYKDSERPSGIPERFSGSSSGTTVTLTISGVQAEDEADYYCQSADSSGTYGWEFGGGTKLTVLG
B5: no binding (tested: 200 ng/ml) [1]; no binding (tested: 200 ng/ml) [4].

B6: 1028-87L (antibody, V domains shown)
VH: not shown
VL: QAGLTQPPSVSKGLRQTATLTCTGNSNNVGNQGAAWLQQHQGHPPKLLSYRNNNRPSGISERLSASRSGNTASLTITGLQPEDEADYYCSAWDSSLSAQVFGGGTKLTVLG
B6: no binding (tested: 200 ng/ml) [1]; no binding (tested: 200 ng/ml) [4].

B7: 0210-30L (antibody, V domains shown)
VH: QVQLVQSGAEVKKPGSSVKVSCKASGGTFSSYAINWVRQAPGQGLEWMGRIIPILGRANYAQKFQGRVTITADKSTSTAYMELSSLRSEDTAVYYCARNPEEFSSSYVYYYYMDVWGKGTTVTVSS
VL: QSALTQPRSVSGSPGQSVTISCTGTSSDVGGYSYVSWYQQHPDKAPKLMIYDVSKRPSGVPDRFSGSKSGNTASLTISGLQAEDEADYYCCSYAGSYTSWVFGGGTKLTVLG
For B7, the IC50 (SARS-CoV-2 spike protein [5]) was roughly 0.2 µg/mL.

B8: 1028-62L (antibody, V domains shown)
VH: QVQLQESGPGLVKPSGTLSLTCAVSGGSISSSNWWSWVRQPPGKGLEWIGEIYHSGSTNYNPSLKSRVTISVDKSNNQFSLKLSSVTAADTAVYYCARGWNYDYWGQGTLVTVSS
VL: QSALTQPASVSGSPGQSITISCTGTSSDVGSYNLVSWYQQHPGKAPKLMIYEGSKRPSGVSNRFSGSKSGNTASLTISGLQAEDEADYYCCSYAGSSTWVFGGGTKLTVLG
B8: binds [6]; no binding (tested: 200 ng/ml) [4].

B9: 1028-164L (antibody, V domains shown)
VH: QVTLRESGPALVKPTQTLTLTCTFSGFSLSTSGMCVSWIRQPPGKALEWLALIDWDDDKYYSTSLKTRLTISKDTSKNQVVLTMTNMDPVDTATYYCARIPVEMATIGDYYYYGMDVWGQGTTVTVSS
VL: not shown
B9: binds [6]; no binding (tested: 200 ng/ml) [4].

B10: 1028-37K (antibody, V domains shown)
VH: QVQLQQSGPGLVKPSQTLSLTCDISGDSVSSNSVAWNWIRQSPSRGLEWLGRTYYRSKWYNDYAVSVKSRITINPDTSKNQFSLQLNSVTPEDTAVYYCASGGYQLLYDDAFDIWGQGTMVTVSS
VL: not shown
B10 was tested, and the binding result [1] was “no binding (tested: 200 ng/ml)”, the IC50 (SARS-CoV-2 spike protein [2]) was roughly 0.7 µg/mL and the binding result [3] was “binds”.

B11: 1028-84K (antibody, V domains shown)
VH: QVQLVESGGGVVQPGRSLRLSCAASGFTFSNYAMHWVFQAPGMGLEWVAVISYDGINKYYADSVKGRFTISRDNSKNTLYLQMNSLRAEDTAVYYCASHRDDYVDSADAFDIWGQGTMVTVSS
VL: not shown
B11: no binding (tested: 200 ng/ml) [1]; no binding (tested: 200 ng/ml) [4].

B12: 1028-61L (antibody, V domains shown)
VH: EVQLVESGGGLVQPGGSLRLSCAASGIDVSSNYMSWVRQAPGKGLEWVSVIYSGGSTYYADAVRGRFTISRHNSKNTLYLQMNSLRAEDAAVYYCARDAQRYGMDVWGQGTTVTVSS
VL: SYVLTQPPSVSVAPGKTARITCGGNNIGSNTVHWYQQKPGQAPVLVIYYDSDRPSGIPERFSGSNSGNTATLTISRVEAGDEADYYCQLWDSSSDHVVFGGGTKLTVLG
For B12, the binding result [1] was “no binding (tested: 200 ng/ml)”, the IC50 (SARS-CoV-2 spike protein [2]) was roughly 0.25 µg/mL and the binding result [4] was “no binding (tested: 200 ng/ml)”.

B13: 1028-30K (antibody, V domains shown)
VH: QVQLVQSGAEVKKPGSSVKVSCKASGGTFNTYAISWVRQAPGQGLEWMGGIIPIFGTANYAQKFQGRVTITADESTSTAYMELSSLRSEDTAVYYCARGEPGYCSGGNCYSSDYWGQGTLVTVSS
VL: not shown
B13: no binding (tested: 200 ng/ml) [1]; no binding (tested: 200 ng/ml) [4].

B14: 0210-28K (antibody, V domains shown)
VH: QMQLVQSGPEVKKPGTSVKVSCKASGFTFSISAVQWVRQARGQRLEWIGWIVVGSGNTNYAQKFQERVTITRDMSTSTAYMELSSLRFEDTAVYYCAAPYCGGDCSDGFDIWGQGTMVTVSS
VL: not shown
With B14 the IC50 (SARS-CoV-2 spike protein [5]) was roughly 0.15 µg/mL, the “IC50, inhibition of pseudotype virus infection, 1st experiment” value [7] was 0.0084 µg/mL and the “IC50, inhibition of pseudotype virus infection, 2nd experiment” value [7] was 0.0303 µg/mL.

B15: 1028-25K (antibody, V domains shown)
VH: QVQLVESGGGVVQPGRSLRLSCAASEFTFSGYAMHWVRQAPGKGLEWVAVISYDGINKYYADSVKGRFTISRDNSKNTLYLQMSSLRAEDTAVYYCARDPDYGDEGAFDYWGQGTLVTVSS
VL: not shown
B15: no binding (tested: 200 ng/ml) [1]; no binding (tested: 200 ng/ml) [4].

B16: 1028-50K (antibody, V domains shown)
VH: EVQLVESGGGLVKPGGSLRLSCAASGFTFSSYIMNWVRQAPGKGLEWVSSISSSSYIYYADSVKGRFTISRDNAKNSLYLQMNSLRAEDTAVYYCARIVGATSYYYYGMDVWGQGTTVTVSS
VL: not shown
B16: no binding (tested: 200 ng/ml) [1]; no binding (tested: 200 ng/ml) [4].

B17: 1028-106K (antibody, V domains shown)
VH: QLQLQESGPGLVKPSETLSLTCTVSGGSISSSYHYWGWIRQPPGKGLEWIGTIYYSGSTYYNPSLKSRVTISVDTSKNQFSLKLSSVTAADTAVYYCARRGYSYDSSGDGVDYWGQGTLVTVSS
VL: DIQMTQSPSSLSASVGDRVTITCRASQGIRNDLGWYQQKPGKAPKRLIYAASSLQSGVPSRFSGSGSGTEFTLTISSLQPEDFATYYCLQHNSYPLTFGGGTKVEIKR
B17: binds [6]; no binding (tested: 200 ng/ml) [4].

B18: 1028-29K (antibody, V domains shown)
VH: QVQLVQSGAEVKKPGASVKVSCKASGYTFTSYYMHWVRQAPGQGLEWMGIINPSGGSTSYAQKFQGRVTMTRDTSTSTVYMELSSLRSEDTAVYYCARDGTPDIVVVPAAPLDYWGQGTLVTVSS
VL: EIVLTQSPATLSLSPGERATLSCRASQSVSSYLAWYQQKPGQAPRLLIYDVSNRATGIPARFSGSGSGTDFTLTISSLEPEDFAVYYCQQRSNWPPVLTFGGGTKVEIKR
B18: binds [6]; no binding (tested: 200 ng/ml) [4].

B19: 1028-137K (antibody, V domains shown)
VH: QVHLVESGGGVVQPGRSLRLSCAASGFTFNSYAMHWVRQAPGKGLEWVAVISYDGNNKYYADSVKGRFTISRDNSKNTLYLQMNSLRAEDTAVYYCARDDDSGSYLYYFDYWGQGTLVTVSS
VL: not shown
B19: binds [6]; no binding (tested: 200 ng/ml) [4].

B20: 1028-65K (antibody, V domains shown)
VH: QVQLVQSGAEVKKPGASVKVSCKASGYTFSSYYMHWVRQAPGQGLEWMGIINPSGGSTSYAQKFQGRVTMTRDTSTSTVYMELSSLRSEDTAVYFCAREGRAAAETDNNWFDPWGQGTLVTVSS
VL: not shown
B20: no binding (tested: 200 ng/ml) [1]; no binding (tested: 200 ng/ml) [4].
